Test results from US20160222105A1 (MacroGenics, published 2016).

T1: gpA33 on human cancer cells (human, UniProt Q99795 22-319)
T1 sequence (looked up): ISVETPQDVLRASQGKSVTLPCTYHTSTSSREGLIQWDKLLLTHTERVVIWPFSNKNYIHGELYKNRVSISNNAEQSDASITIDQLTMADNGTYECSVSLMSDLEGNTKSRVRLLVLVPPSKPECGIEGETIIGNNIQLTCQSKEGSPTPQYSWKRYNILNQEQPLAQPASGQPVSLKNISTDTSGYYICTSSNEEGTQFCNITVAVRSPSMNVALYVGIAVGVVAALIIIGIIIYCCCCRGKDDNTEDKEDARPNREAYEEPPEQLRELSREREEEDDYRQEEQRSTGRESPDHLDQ

T2: human gpA33 (human, UniProt Q99795 22-235, limits assumed)
T2 construct: There it is printed only as gpA33; also called A33 antigen
T2 sequence (looked up): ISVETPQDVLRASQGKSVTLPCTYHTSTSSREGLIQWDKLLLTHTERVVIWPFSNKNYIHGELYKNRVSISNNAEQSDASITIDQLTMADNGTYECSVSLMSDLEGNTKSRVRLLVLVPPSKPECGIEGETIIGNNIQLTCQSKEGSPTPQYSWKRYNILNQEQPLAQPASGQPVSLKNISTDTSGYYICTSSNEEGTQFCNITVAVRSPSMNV


Assays:
[1] = target: T1, gpA33 on human cancer cells; experiment: cell-based or functional assay
[2] = target: CD3 of cynomolgus monkey T cells (cynomolgus monkey, UniProt Q95LI5 22-198; Q95LI8 22-171); experiment: cell-based or functional assay
human gpA33 = target: T2, human gpA33; experiment: kinetics of binding to gpA33; method not stated

Chain of CD3 of cynomolgus monkey T cells (Q95LI5 22-198 limits assumed, chain 1 of 2): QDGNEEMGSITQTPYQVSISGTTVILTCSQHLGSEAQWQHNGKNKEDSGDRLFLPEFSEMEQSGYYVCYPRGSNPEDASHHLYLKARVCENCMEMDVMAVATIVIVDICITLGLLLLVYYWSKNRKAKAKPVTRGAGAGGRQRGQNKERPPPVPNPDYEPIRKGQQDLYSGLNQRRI
Chain of CD3 of cynomolgus monkey T cells (Q95LI8 22-171 limits assumed, chain 2 of 2): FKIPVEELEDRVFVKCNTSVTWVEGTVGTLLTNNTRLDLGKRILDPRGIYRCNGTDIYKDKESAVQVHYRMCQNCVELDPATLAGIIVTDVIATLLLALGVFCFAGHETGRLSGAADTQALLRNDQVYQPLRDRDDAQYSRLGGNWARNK

Row | Binder | EC50 - CTL Activity, Colo205 Target Cells, LDH Assay, Human PBMC [1] [ng/mL] | EC50 - CTL Activity, Colo205 Target Cells, Luciferase Assay, Human PBMC [1] [ng/mL] | EC50 - CTL Activity, Colo205 Target Cells, LDH Assay, Cyno PBMC [2] [ng/mL] | EC50 - CTL Activity, Colo205 Target Cells, Luciferase Assay, Cyno PBMC [2] [ng/mL] | Kd (human gpA33) [nM]
1 | gpA33 × CD3 bi-specific monovalent diabody (DART-2) (bispecific antibody) chain 1: QAVVTQEPSLTVSPGGTVTLTCRSSTGAVTTSNYANWVQQKPGQAPRGLIGGTNKRAPWTPARFSGSLLGGKAALTITGAQAEDEADYYCALWYSNLWVFGGGTKLTVLGGGGSGGGGQVQLVQSGAEVKKPGASVKVSCKASGYTFTGSWMNWVRQAPGQGLEWIGRIYPGDGETNYNGKFKDRVTITADKSTSTAYMELSSLRSEDTAVYYCARIYGNNVYFDVWGQGTTVTVSSGGCGGGEVAALEKEVAALEKEVAALEKEVAALEK chain 2: DIQLTQSPSFLSASVGDRVTITCSARSSISFMYWYQQKPGKAPKLLIYDTSNLASGVPSRFSGSGSGTEFTLTISSLEAEDAATYYCQQWSSYPLTFGQGTKLEIKGGGSGGGGEVQLVESGGGLVQPGGSLRLSCAASGFTFSTYAMNWVRQAPGKGLEWVGRIRSKYNNYATYYADSVKDRFTISRDDSKNSLYLQMNSLKTEDTAVYYCVRHGNFGNSYVSWFAYWGQGTLVTVSSGGCGGGKVAALKEKVAALKEKVAALKEKVAALKE | 4.09 | 2.73 | 3.81 | 1.55 | 
2 | gpA33 × CD3 bi-specific monovalent diabody having an Albumin-Binding Domain (DART-2 w/ABD) (bispecific antibody) chain 1: QAVVTQEPSLTVSPGGTVTLTCRSSTGAVTTSNYANWVQQKPGQAPRGLIGGTNKRAPWTPARFSGSLLGGKAALTITGAQAEDEADYYCALWYSNLWVFGGGTKLTVLGGGGSGGGGQVQLVQSGAEVKKPGASVKVSCKASGYTFTGSWMNWVRQAPGQGLEWIGRIYPGDGETNYNGKFKDRVTITADKSTSTAYMELSSLRSEDTAVYYCARIYGNNVYFDVWGQGTTVTVSSGGCGGGEVAALEKEVAALEKEVAALEKEVAALEKGGGSLAQAKEAAIRELDKYGVSDYYKNLIDNAKSAEGVKALIDEILAALP chain 2: DIQLTQSPSFLSASVGDRVTITCSARSSISFMYWYQQKPGKAPKLLIYDTSNLASGVPSRFSGSGSGTEFTLTISSLEAEDAATYYCQQWSSYPLTFGQGTKLEIKGGGSGGGGEVQLVESGGGLVQPGGSLRLSCAASGFTFSTYAMNWVRQAPGKGLEWVGRIRSKYNNYATYYADSVKDRFTISRDDSKNSLYLQMNSLKTEDTAVYYCVRHGNFGNSYVSWFAYWGQGTLVTVSSGGCGGGKVAALKEKVAALKEKVAALKEKVAALKE | 5.52 | 3.07 | 4.63 | 1.63 | 
3 | Murine mAb 1 (antibody, V domains shown, also called original murine anti-human gpA33 monoclonal antibody) VH: QVQLQQSGPELVKPGASVKISCKASGYTFSGSWMNWVKQRPGQGLEWIGRIYPGDGETNYNGKFKDKATLTADKSSTTAYMELSSLTSVDSAVYFCARIYGNNVYFDVWGAGTTVTVSS VL: QIVLTQSPAIMSASPGERVTMTCSARSSISFMYWYQQKPGSSPRLLIYDTSNLASGVPVRFSGSGSGTSYSLTISRMEAEDAATYYCQQWSSYPLTFGSGTKLELK |  |  |  |  | 2.3
4 | Chimeric mAb 1 (antibody, V domains shown, also called chimericized anti-human gpA33 antibody) VH: QVQLQQSGPELVKPGASVKISCKASGYTFSGSWMNWVKQRPGQGLEWIGRIYPGDGETNYNGKFKDKATLTADKSSTTAYMELSSLTSVDSAVYFCARIYGNNVYFDVWGAGTTVTVSS VL: QIVLTQSPAIMSASPGERVTMTCSARSSISFMYWYQQKPGSSPRLLIYDTSNLASGVPVRFSGSGSGTSYSLTISRMEAEDAATYYCQQWSSYPLTFGSGTKLELK |  |  |  |  | 2.4
5 | Humanized mAb 1 (antibody, V domains shown, also called humanized anti-human gpA33 antibody) VH: QVQLVQSGAEVKKPGASVKVSCKASGYTFTGSWMNWVRQAPGQGLEWIGRIYPGDGETNYNGKFKDRVTITADKSTSTAYMELSSLRSEDTAVYYCARIYGNNVYFDVWGQGTTVTVSS VL: DIQLTQSPSFLSASVGDRVTITCSARSSISFMYWYQQKPGKAPKLLIYDTSNLASGVPSRFSGSGSGTEFTLTISSLEAEDAATYYCQQWSSYPLTFGQGTKLEIK |  |  |  |  | 3.4
